Here are results for three proteins from article PMC10811823.

The nature of one data set: western blot. The settings on record: glycan changed form; control: control RAW264.7.
Data set [1] can be described thus: Co-IP/western after MG132. As to conditions: glycan changed form; control: control RAW264.7.
A short description of data set [2]: CHX chase, western blot (protein persistence). The settings on record: glycan changed form; control: control RAW264.7. A general note: Immunoblotting shows a protein as a band on a membrane.
Data set [3] in a line: Co-IP/western after MG132, HEK 293T. As to conditions: glycan lost; control: WT/LG.

B1: Lgals3bp (galectin 3 binding protein): RAW/shM1 (MGAT3 silenced) (protein)
parent chain: MALLWLLSVFLLVPGTQGTEDGDMRLVNGASANEGRVEIFYRGRWGTVCDNLWNLLDAHVVCRALGYENATQALGRAAFGPGKGPIMLDEVECTGTESSLASCRSLGWMVSRCGHEKDAGVVCSNDTTGLHILDLSGELSDALGQIFDSQQGCDLFIQVTGQGYEDLSLCAHTLILRTNPEAQALWQVVGSSVIMRVDAECMPVVRDFLRYFYSRRIEVSMSSVKCLHKLASAYGATELQDYCGRLFATLLPQDPTFHTPLDLYAYARATGDSMLEDLCVQFLAWNFEPLTQSESWSAVPTTLIQALLPKSELAVSSELDLLKAVDQWSTETIASHEDIERLVEQVRFPMMLPQELFELQFNLSLYQDHQALFQRKTMQALEFHTVPVEVLAKYKGLNLTEDTYKPRLYTSSTWSSLVMASTWRAQRYEYNRYNQLYTYGYGSVARYNSYQSFQTPQHPSFLFKDKQISWSATYLPTMQSCWNYGFSCTSNELPVLGLTTSSYSNPTIGYENRVLILCGGYSVVDVTSFEGSKAPIPTALDTNSSKTPSLFPCASGAFSSFRVVIRPFYLTNSTDMV
Consider B1, for which the expression_or_secretion entry in “western blot” was “increases”. For the same protein, the “other: ubiquitination” value in data set [1] is listed as “decreases”. The degradation_or_half_life result in data set [2] was “increases”.

B2: Lgals3bp (galectin 3 binding protein): RAW/MGAT3 (MGAT3 overexpressed) (protein)
parent chain: B1 parent chain
B2: the degradation_or_half_life result in data set [2] is reported as “decreases”.

B3: Lgals3bp (galectin 3 binding protein): N69A/LG (protein)
parent chain: B1 parent chain
As to B3, the “other: ubiquitination” value in data set [3] is recorded as “decreases”.
